T1: GST fusion to Xenopus laevis CENP-A amino terminus (amino acids 1–50) (Xenopus laevis (African clawed frog), UniProt Q569M3)
T1 chain: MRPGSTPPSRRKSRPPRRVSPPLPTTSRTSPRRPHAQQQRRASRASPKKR


Experiments:
[1] = biological target: Flag RbAp46 (Xenopus, recombinant) (Xenopus laevis (African clawed frog), UniProt Q8AVH1); assay: GST-CENP-A tail resin pull-down (bridged), Coomassie; inferred from RbAp46-dependent recovery of Hat1 on the immobilized GST-CENP-A N-terminal tail (1-50); no direct two-protein test
[2] = biological target: T1, GST fusion to Xenopus laevis CENP-A …; assay: GST-tail resin pull-down, Coomassie

Row | Binder | binding result [1] | binding result [2]
1 | Flag Hat1 (Xenopus, recombinant) (protein) MEKKLAEYKCNTNEAIQLKLVRFPEDIEDESMTFNPEYSHQIFGDEEVAFGYKGLKILLYYSAGNLSTMFRVQYSSKVNDKFDLVQPDDVENKIHELIPAGFCSGTDDFITLLEKEVNFKPFGTIVHTYTVHNEDAGEDISYQIYKADMTSPGFREYHERLQTFMMWFIETASYIDVDDEKWDYFLVFEKYNKDGATLFATVGYMTVYNYYVYPDKTRPRVSQMLVLPPFQGEGHGAQLMETVHRYYVSAPNILDITAEDPSENFVRLRDFVLVKLCQNLPCFSPEKLLCGFSKEMVTEAQEKLKINKKHARRVYEILRLRATDMSDPEKSKAYRLDVKKRLVGPYKKNQREMAKMQQCLRPEELTNQMNQIDLNTQHEQLEESYQQLVEEYRRIVERLAQA | binds | 
2 | Flag RbAp46 (Xenopus, recombinant) (protein) MANKEMFEDTVEERVINEEYKIWKKNTPFLYDLVMTHALEWPSLTVQWLPDVTRPEGKDYALHWLVLGTHTSDEQNHLVVARVQVPNDDAQFDASHYDSEKGEFGGFGSVSGKIETEIKINHEGEVNRARYMPQNPCIIATKTPSADVLVFDYTKHPSKPDPSGECSPDLRLRGHQKEGYGLSWNSNLSGHLLSASDDHTVCLWDISAGPKEGKVVDAKAVFTGHSAVVEDVAWHLLHESLFGSVADDQKLMIWDTRSNTTSKPSHSVDAHTAEVNCLSFNPYSEFILATGSADKTVALWDLRNLKLKLHSFESHKDEIFQVHWSPHNETILASSGTDRRLNVWDLSKIGEEQSAEDAEDGPPELLFIHGGHTAKISDFSWNPNEPWVICSVSEDNIMQIWQMAENIYNDEEPDIPASELEAQGS |  | binds

Reference: article PMC5097169 (2016)
